Numbered stars: 1 amine (or outer) side, 2 acyl side, 3 side chain; on linkers, the order of the positions; unused ones are H or OH. Square brackets hold non-standard residues; d marks the D form. Side chains are listed from the residue outwards. * marks the point of attachment. C20 diacid = O=C(O)CCCCCCCCCCCCCCCCCCC(=O)*; C18 diacid = O=C(O)CCCCCCCCCCCCCCCCC(=O)*; γGlu = O=C(O)[C@H](CCC(=O)[*:2])N[*:1]
T1: human amylin 3(a) receptor (human calcitonin receptor co-expressed with RAMP-3) on BHK570/CRE-luc cells (human, UniProt P30988 25-474; O60896 24-148)
T1 sequence (looked up) 1: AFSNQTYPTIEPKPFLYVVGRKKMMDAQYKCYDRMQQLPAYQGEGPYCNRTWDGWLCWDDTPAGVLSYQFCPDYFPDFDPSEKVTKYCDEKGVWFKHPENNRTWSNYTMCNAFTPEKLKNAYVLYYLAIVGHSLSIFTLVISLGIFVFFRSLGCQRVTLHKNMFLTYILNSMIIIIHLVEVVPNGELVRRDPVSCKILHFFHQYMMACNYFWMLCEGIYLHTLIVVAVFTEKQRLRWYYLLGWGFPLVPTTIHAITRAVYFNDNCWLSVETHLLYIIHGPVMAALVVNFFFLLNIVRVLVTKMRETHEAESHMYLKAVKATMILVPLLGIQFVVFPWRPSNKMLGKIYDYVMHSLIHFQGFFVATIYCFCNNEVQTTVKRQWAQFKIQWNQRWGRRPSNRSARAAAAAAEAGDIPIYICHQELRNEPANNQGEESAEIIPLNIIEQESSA
T1 sequence (looked up) 2: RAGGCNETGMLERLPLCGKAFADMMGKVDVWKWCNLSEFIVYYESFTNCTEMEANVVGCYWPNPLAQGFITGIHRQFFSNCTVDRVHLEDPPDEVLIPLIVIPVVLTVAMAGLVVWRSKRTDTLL

T2: human calcitonin receptor on BHK570/CRE-luc cells (human, UniProt P30988 25-474)
T2 sequence (looked up): T1 sequence (looked up) 1

B1: [N-terminal(C18 diacid-gGlu), des1, 9V, 30S, 31G]mimylin (peptide)
peptide: {C18 diacid-γGlu}-ASELSTAVLGRLSAELHELATLPRTETGSGSP-NH2
SMILES: CC(C)C[C@H](NC(=O)[C@H](CCC(=O)O)NC(=O)[C@H](Cc1c[nH]cn1)NC(=O)[C@H](CC(C)C)NC(=O)[C@H](CCC(=O)O)NC(=O)[C@H](C)NC(=O)[C@H](CO)NC(=O)[C@H](CC(C)C)NC(=O)[C@H](CCCNC(=N)N)NC(=O)CNC(=O)[C@H](CC(C)C)NC(=O)[C@@H](NC(=O)[C@H](C)NC(=O)[C@@H](NC(=O)[C@H](CO)NC(=O)[C@H](CC(C)C)NC(=O)[C@H](CCC(=O)O)NC(=O)[C@H](CO)NC(=O)[C@H](C)NC(=O)CC[C@H](NC(=O)CCCCCCCCCCCCCCCCC(=O)O)C(=O)O)[C@@H](C)O)C(C)C)C(=O)N[C@@H](C)C(=O)N[C@H](C(=O)N[C@@H](CC(C)C)C(=O)N1CCC[C@H]1C(=O)N[C@@H](CCCNC(=N)N)C(=O)N[C@H](C(=O)N[C@@H](CCC(=O)O)C(=O)N[C@H](C(=O)NCC(=O)N[C@@H](CO)C(=O)NCC(=O)N[C@@H](CO)C(=O)N1CCC[C@H]1C(N)=O)[C@@H](C)O)[C@@H](C)O)[C@@H](C)O
B2: [N-terminal(C20 diacid-gGlu), des1, 15e, 30S, 31G]mimylin (peptide)
peptide: {C20 diacid-γGlu}-ASELSTAALGRLS[dE]ELHELATLPRTETGSGSP-NH2
SMILES: CC(C)C[C@H](NC(=O)[C@H](C)NC(=O)[C@H](C)NC(=O)[C@@H](NC(=O)[C@H](CO)NC(=O)[C@H](CC(C)C)NC(=O)[C@H](CCC(=O)O)NC(=O)[C@H](CO)NC(=O)[C@H](C)NC(=O)CC[C@H](NC(=O)CCCCCCCCCCCCCCCCCCC(=O)O)C(=O)O)[C@@H](C)O)C(=O)NCC(=O)N[C@@H](CCCNC(=N)N)C(=O)N[C@@H](CC(C)C)C(=O)N[C@@H](CO)C(=O)N[C@H](CCC(=O)O)C(=O)N[C@@H](CCC(=O)O)C(=O)N[C@@H](CC(C)C)C(=O)N[C@@H](Cc1c[nH]cn1)C(=O)N[C@@H](CCC(=O)O)C(=O)N[C@@H](CC(C)C)C(=O)N[C@@H](C)C(=O)N[C@H](C(=O)N[C@@H](CC(C)C)C(=O)N1CCC[C@H]1C(=O)N[C@@H](CCCNC(=N)N)C(=O)N[C@H](C(=O)N[C@@H](CCC(=O)O)C(=O)N[C@H](C(=O)NCC(=O)N[C@@H](CO)C(=O)NCC(=O)N[C@@H](CO)C(=O)N1CCC[C@H]1C(N)=O)[C@@H](C)O)[C@@H](C)O)[C@@H](C)O
B3: [N-terminal(C18 diacid-gGlu), des1, 30S, 31G, 32P]mimylin (peptide)
peptide: {C18 diacid-γGlu}-ASELSTAALGRLSAELHELATLPRTETGSGPP-NH2
SMILES: CC(C)C[C@H](NC(=O)[C@H](C)NC(=O)[C@H](C)NC(=O)[C@@H](NC(=O)[C@H](CO)NC(=O)[C@H](CC(C)C)NC(=O)[C@H](CCC(=O)O)NC(=O)[C@H](CO)NC(=O)[C@H](C)NC(=O)CC[C@H](NC(=O)CCCCCCCCCCCCCCCCC(=O)O)C(=O)O)[C@@H](C)O)C(=O)NCC(=O)N[C@@H](CCCNC(=N)N)C(=O)N[C@@H](CC(C)C)C(=O)N[C@@H](CO)C(=O)N[C@@H](C)C(=O)N[C@@H](CCC(=O)O)C(=O)N[C@@H](CC(C)C)C(=O)N[C@@H](Cc1c[nH]cn1)C(=O)N[C@@H](CCC(=O)O)C(=O)N[C@@H](CC(C)C)C(=O)N[C@@H](C)C(=O)N[C@H](C(=O)N[C@@H](CC(C)C)C(=O)N1CCC[C@H]1C(=O)N[C@@H](CCCNC(=N)N)C(=O)N[C@H](C(=O)N[C@@H](CCC(=O)O)C(=O)N[C@H](C(=O)NCC(=O)N[C@@H](CO)C(=O)NCC(=O)N1CCC[C@H]1C(=O)N1CCC[C@H]1C(N)=O)[C@@H](C)O)[C@@H](C)O)[C@@H](C)O
B4: [N-terminal(C20 diacid-gGlu), des1, 15E, 30S, 31G]mimylin (peptide)
peptide: {C20 diacid-γGlu}-ASELSTAALGRLSEELHELATLPRTETGSGSP-NH2
SMILES: CC(C)C[C@H](NC(=O)[C@H](C)NC(=O)[C@H](C)NC(=O)[C@@H](NC(=O)[C@H](CO)NC(=O)[C@H](CC(C)C)NC(=O)[C@H](CCC(=O)O)NC(=O)[C@H](CO)NC(=O)[C@H](C)NC(=O)CC[C@H](NC(=O)CCCCCCCCCCCCCCCCCCC(=O)O)C(=O)O)[C@@H](C)O)C(=O)NCC(=O)N[C@@H](CCCNC(=N)N)C(=O)N[C@@H](CC(C)C)C(=O)N[C@@H](CO)C(=O)N[C@@H](CCC(=O)O)C(=O)N[C@@H](CCC(=O)O)C(=O)N[C@@H](CC(C)C)C(=O)N[C@@H](Cc1c[nH]cn1)C(=O)N[C@@H](CCC(=O)O)C(=O)N[C@@H](CC(C)C)C(=O)N[C@@H](C)C(=O)N[C@H](C(=O)N[C@@H](CC(C)C)C(=O)N1CCC[C@H]1C(=O)N[C@@H](CCCNC(=N)N)C(=O)N[C@H](C(=O)N[C@@H](CCC(=O)O)C(=O)N[C@H](C(=O)NCC(=O)N[C@@H](CO)C(=O)NCC(=O)N[C@@H](CO)C(=O)N1CCC[C@H]1C(N)=O)[C@@H](C)O)[C@@H](C)O)[C@@H](C)O
B5: [N-terminal(C20 diacid-gGlu), des1, 25H, 30S, 31G]mimylin (peptide)
peptide: {C20 diacid-γGlu}-ASELSTAALGRLSAELHELATLPHTETGSGSP-NH2
SMILES: CC(C)C[C@H](NC(=O)[C@H](C)NC(=O)[C@H](C)NC(=O)[C@@H](NC(=O)[C@H](CO)NC(=O)[C@H](CC(C)C)NC(=O)[C@H](CCC(=O)O)NC(=O)[C@H](CO)NC(=O)[C@H](C)NC(=O)CC[C@H](NC(=O)CCCCCCCCCCCCCCCCCCC(=O)O)C(=O)O)[C@@H](C)O)C(=O)NCC(=O)N[C@@H](CCCNC(=N)N)C(=O)N[C@@H](CC(C)C)C(=O)N[C@@H](CO)C(=O)N[C@@H](C)C(=O)N[C@@H](CCC(=O)O)C(=O)N[C@@H](CC(C)C)C(=O)N[C@@H](Cc1c[nH]cn1)C(=O)N[C@@H](CCC(=O)O)C(=O)N[C@@H](CC(C)C)C(=O)N[C@@H](C)C(=O)N[C@H](C(=O)N[C@@H](CC(C)C)C(=O)N1CCC[C@H]1C(=O)N[C@@H](Cc1c[nH]cn1)C(=O)N[C@H](C(=O)N[C@@H](CCC(=O)O)C(=O)N[C@H](C(=O)NCC(=O)N[C@@H](CO)C(=O)NCC(=O)N[C@@H](CO)C(=O)N1CCC[C@H]1C(N)=O)[C@@H](C)O)[C@@H](C)O)[C@@H](C)O
B6: [N-terminal(C20 diacid-gGlu), des1, 30T, 31G, 32T]mimylin (peptide)
peptide: {C20 diacid-γGlu}-ASELSTAALGRLSAELHELATLPRTETGTGTP-NH2
SMILES: CC(C)C[C@H](NC(=O)[C@H](C)NC(=O)[C@H](C)NC(=O)[C@@H](NC(=O)[C@H](CO)NC(=O)[C@H](CC(C)C)NC(=O)[C@H](CCC(=O)O)NC(=O)[C@H](CO)NC(=O)[C@H](C)NC(=O)CC[C@H](NC(=O)CCCCCCCCCCCCCCCCCCC(=O)O)C(=O)O)[C@@H](C)O)C(=O)NCC(=O)N[C@@H](CCCNC(=N)N)C(=O)N[C@@H](CC(C)C)C(=O)N[C@@H](CO)C(=O)N[C@@H](C)C(=O)N[C@@H](CCC(=O)O)C(=O)N[C@@H](CC(C)C)C(=O)N[C@@H](Cc1c[nH]cn1)C(=O)N[C@@H](CCC(=O)O)C(=O)N[C@@H](CC(C)C)C(=O)N[C@@H](C)C(=O)N[C@H](C(=O)N[C@@H](CC(C)C)C(=O)N1CCC[C@H]1C(=O)N[C@@H](CCCNC(=N)N)C(=O)N[C@H](C(=O)N[C@@H](CCC(=O)O)C(=O)N[C@H](C(=O)NCC(=O)N[C@H](C(=O)NCC(=O)N[C@H](C(=O)N1CCC[C@H]1C(N)=O)[C@@H](C)O)[C@@H](C)O)[C@@H](C)O)[C@@H](C)O)[C@@H](C)O

molecular target: T1, human amylin 3(a) receptor (human …); test: cell-based or functional assay

| Binder | hAmylin-R funct. EC50 (pM), tested with HSA [pM] |
| --- | --- |
| Ac-ASELSTAALGRLSAELHK([γGlu-C20 diacid])LATLPRTETGSGSP-NH2 [[N-terminal(acetyl), des1, 19K(C20 diacid-gGlu), 30S, 31G]mimylin] | 47 |
| Ac-ASK([γGlu-C20 diacid])LSTAALGRLSAELHELATLPRTETGSGSP-NH2 [[N-terminal(acetyl), des1, 4K(C20 diacid-gGlu), 30S, 31G]mimylin] | 72 |
| {C20 diacid-γGlu}-ASELSTAALGHLSAELHELATLPRTETGSGSP-NH2 [[N-terminal(C20 diacid-gGlu), des1, 12H, 30S, 31G]mimylin] | 230 |
| B1 | 17 |
| B2 | 94 |
| {C20 diacid-γGlu}-ASGLSTAALGRLSAELHELATYPRTETGSGSP-NH2 [[N-terminal(C20 diacid-gGlu), des1, 4G, 23Y, 30S, 31G]mimylin] | 71 |
| B3 | 413 |
| B4 | 85 |
| Ac-ASELSTAALGRLSAK([γGlu-C20 diacid])LHELATLPRTETGSGSP-NH2 [[N-terminal(acetyl), des1, 16K(C20 diacid-gGlu), 30S, 31G]mimylin] | 100 |
| B5 | 185 |
| B6 | 134 |

molecular target: T2, human calcitonin receptor on …; test: cell-based or functional assay

| Binder | hCTR funct. EC50 (pM), tested with HSA [pM] |
| --- | --- |
| Ac-ASELSTAALGRLSAELHK([γGlu-C20 diacid])LATLPRTETGSGSP-NH2 [[N-terminal(acetyl), des1, 19K(C20 diacid-gGlu), 30S, 31G]mimylin] | 22 |
| Ac-ASK([γGlu-C20 diacid])LSTAALGRLSAELHELATLPRTETGSGSP-NH2 [[N-terminal(acetyl), des1, 4K(C20 diacid-gGlu), 30S, 31G]mimylin] | 37 |
| {C20 diacid-γGlu}-ASELSTAALGHLSAELHELATLPRTETGSGSP-NH2 [[N-terminal(C20 diacid-gGlu), des1, 12H, 30S, 31G]mimylin] | 48 |
| B1 | 11 |
| B2 | 23 |
| {C20 diacid-γGlu}-ASGLSTAALGRLSAELHELATYPRTETGSGSP-NH2 [[N-terminal(C20 diacid-gGlu), des1, 4G, 23Y, 30S, 31G]mimylin] | 45 |
| B3 | 95 |
| B4 | 40 |
| Ac-ASELSTAALGRLSAK([γGlu-C20 diacid])LHELATLPRTETGSGSP-NH2 [[N-terminal(acetyl), des1, 16K(C20 diacid-gGlu), 30S, 31G]mimylin] | 44 |
| B5 | 22 |
| B6 | 56 |

From US20160272683A1 (Novo Nordisk, published 2016)
